Measurements: US9228015B2, “Nogo receptor antagonists and methods of increasing neurite outgrowth” (Biogen Idec MA Inc., priority 2006, dated 2016)

What was measured:
OM-gp + sNogoR344-Fc = target: T1, OM-gp + sNogoR344-Fc (Rattus norvegicus, UniProt Q99M75, A303T/C287S/C43R/E284G/T53A); test: ELISA: inhibition of OM-gp binding to sNogoR344-Fc
T1 construct: amino acid residues 26-344 of rat Nogo receptor-1; made in house; CHO (DG44) is described only for sNogoR310-Fc
T1 sequence (Q99M75 26-344 C43R/T53A/E284G/C287S/A303T): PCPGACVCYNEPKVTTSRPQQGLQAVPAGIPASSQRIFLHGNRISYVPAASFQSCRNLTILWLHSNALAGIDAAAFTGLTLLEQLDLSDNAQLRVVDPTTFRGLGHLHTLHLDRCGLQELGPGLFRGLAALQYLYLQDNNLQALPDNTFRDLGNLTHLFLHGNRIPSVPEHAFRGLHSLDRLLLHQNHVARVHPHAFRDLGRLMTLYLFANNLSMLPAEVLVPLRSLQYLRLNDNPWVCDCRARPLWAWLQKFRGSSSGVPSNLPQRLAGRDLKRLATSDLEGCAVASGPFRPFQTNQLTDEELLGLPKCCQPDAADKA
Protocol: 0.5 μg of a soluble Nogo receptor-1 fusion protein comprising amino acid residues 26-344 of rat Nogo receptor-1 and the hinge and Fc region of the rat IgG1 molecule (sNogoR344-Fc) produced as described below was immobilized on […] of protein-A- or wheatgerm agglutinin-conjugated SPA beads (Amersham Pharmacia Biotech) for 2 hours at 25° C. SPA beads coupled with Fc-sNogoR-1, anti-Nogo receptor-1 mAb and 1 μl ^125I-Nogo66 (Amersham, 2000 Ci/mmol, 1 nM) in […] of the HEPES-buffered incubation medium (10 mM HEPES, pH 7.4, 0.1% bovine serum albumin, 0.1% ovalbumin, 2 mM MgCl2, 2 mM CaCl2 and protease inhibitors) was added to each sample well. After 16 hours, radioactivity was measured in quadruplicate samples using a TopCount® (Packard). IC50 values were calculated from a curve-fit analysis (FIG. 3) (PRISM, GraphPad Software, NJ). In some experiments, we also used AP-ligand conjugates (e.g. AP-Nogo66) and detected binding by monitoring alkaline phosphatase activity. We also assayed the ability of the mAbs to block binding of the ligands MAG-Fc and AP-OM-gp to Nogo receptor-1.
Monoclonal antibodies 7E11, 5B10, 1H2, 3G5 and 2F7 all inhibited binding of Nogo66, MAG and OM-gp to sNogoR344-Fc. The calculated IC50 for Nogo66 for 7E11 and 1H2 were 400 nM and 60 nM, respectively. The data from ELISAs monitoring mAb-mediated inhibition of binding of the three ligands to Nogo receptor-1 are summarized in Table 6.
The percent displacement is shown at 30 nM antibody and the EC50 for certain mAbs determined from curve-fit analysis as described. “-” indicates no detectable activity and “ND” indicates not determined.
We also performed ELISA binding assays using the Fab-phage 141)5.

human NgR2 = target: T2, human NgR2 (Homo sapiens, UniProt Q86UN3); test: Antibody binding specificity: human Nogo receptor-2
T2 sequence (Q86UN3 47-390): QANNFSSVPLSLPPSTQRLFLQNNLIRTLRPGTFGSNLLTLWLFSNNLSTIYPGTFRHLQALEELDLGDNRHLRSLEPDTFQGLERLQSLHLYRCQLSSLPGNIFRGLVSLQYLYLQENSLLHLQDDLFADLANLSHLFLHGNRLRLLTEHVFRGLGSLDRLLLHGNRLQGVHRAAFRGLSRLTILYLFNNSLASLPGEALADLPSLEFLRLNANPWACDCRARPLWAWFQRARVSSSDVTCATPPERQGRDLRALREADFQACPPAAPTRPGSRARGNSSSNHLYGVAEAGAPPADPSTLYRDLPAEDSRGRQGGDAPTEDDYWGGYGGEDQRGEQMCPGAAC

mouse NgR3 = target: T3, mouse NgR3 (Mus musculus, UniProt Q8K0S5); test: Antibody binding specificity: mouse Nogo receptor-3
T3 sequence (Q8K0S5 25-424): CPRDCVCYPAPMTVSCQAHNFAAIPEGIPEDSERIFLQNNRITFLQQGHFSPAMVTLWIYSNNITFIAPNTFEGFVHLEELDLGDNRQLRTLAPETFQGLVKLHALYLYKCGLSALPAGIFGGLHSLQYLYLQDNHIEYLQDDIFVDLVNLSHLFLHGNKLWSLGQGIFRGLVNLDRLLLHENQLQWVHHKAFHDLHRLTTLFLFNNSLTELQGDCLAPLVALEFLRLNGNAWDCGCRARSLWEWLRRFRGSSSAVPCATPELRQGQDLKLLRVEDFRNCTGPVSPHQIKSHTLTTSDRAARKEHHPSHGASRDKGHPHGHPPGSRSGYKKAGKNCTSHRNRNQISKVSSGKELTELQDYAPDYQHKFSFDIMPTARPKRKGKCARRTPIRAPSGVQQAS

inhibition of binding of OM-gp to sNogoR344-Fc (OM-gp + sNogoR344-Fc): inhibited | EC50 (OM-gp + sNogoR344-Fc; curve-fit analysis): 150 nM | binding to human Nogo receptor-2 (human NgR2): not | binding to mouse Nogo receptor-3 (mouse NgR3): not
B1: 7E11: murine monoclonal anti-Nogo receptor-1 antibody, immunogen rat Nogo receptor-1 residues 110-125, IgG1 kappa, ATCC PTA-4587 (antibody, V domains shown)
VH: VQLQESGAELVMPGASVKMSCKASGYTFTDYWMHWVKQRPGQGLEWIGAIDPSDSYSSYNQNFKGKATLTVDGSSSTAYMQLSSLTSEDSAVYYCARRITEAGAWFAYWGQGTTVT
VL: MKLPVRLLVLMFWIPASSSDVVMTQTPLSLPVSLGDQASISCRSSQSLVHSNGNTYLHWYLQKPGQSPKLLIYKVSNRFSGVPDRFSGSGSGTDFTLKISRVDAEDLGVYFCSQSTHVPFTFGGGTKLEIKRADAAPTVSISHH
modifications: 7E11 heavy chain; 7E11 light chain
notes: murine monoclonal anti-Nogo receptor-1 antibody, immunogen rat Nogo receptor-1 residues 110-125, IgG1 kappa, ATCC PTA-4587
